Data from patent publication US20160130333A1.

Target: histones
Assay: ELISA

B1: murine IMMU-H4 antibody (parental murine anti-histone H4 antibody) (antibody, V domains shown)
VH: QVQLQQSGAELVRPGASVKLSCTASGFNIKDDYLHWVKQRPEQGLEWIGWIDPENGDTEYASKFQGKATITADTSSNTAYLQLSSLTSEDTAVYYCSSPLVHLRTFAYWGQGTLVTVS
VL: DIQLTQSPASLAVSLGQRATISCRASESVDSYDNSLHWFQQKPGQPPKLLIYLASNLESGVPARFSGSGSRTDFTLTIDPVEADDAATYYCQQNNEDPWTFGGGTKLEIKR
- Kd: 6.6 nM
